Data taken from PMC6150732.

Target: encapsulin from Brevibacterium linens (Brevibacterium linens)
Experiment: cryo-EM structure

| Substance | stoichiometry N (subunits per particle) | stoichiometry N (DyP hexamer per encapsulin particle) |
| --- | --- | --- |
| encapsulin from Brevibacterium linens (natural protein) | 60 |  |
| dye-decolorizing peroxidase (DyP) from Brevibacterium linens (enzyme) |  | 1 |
